What was measured:
Experiment in all cases: cleavage_in_vitro
[1] = system: T1, OMNI-58 (Collinsella sp. AM13-34); conditions: PAM NNNNCCA; TXTL
T1 sequence: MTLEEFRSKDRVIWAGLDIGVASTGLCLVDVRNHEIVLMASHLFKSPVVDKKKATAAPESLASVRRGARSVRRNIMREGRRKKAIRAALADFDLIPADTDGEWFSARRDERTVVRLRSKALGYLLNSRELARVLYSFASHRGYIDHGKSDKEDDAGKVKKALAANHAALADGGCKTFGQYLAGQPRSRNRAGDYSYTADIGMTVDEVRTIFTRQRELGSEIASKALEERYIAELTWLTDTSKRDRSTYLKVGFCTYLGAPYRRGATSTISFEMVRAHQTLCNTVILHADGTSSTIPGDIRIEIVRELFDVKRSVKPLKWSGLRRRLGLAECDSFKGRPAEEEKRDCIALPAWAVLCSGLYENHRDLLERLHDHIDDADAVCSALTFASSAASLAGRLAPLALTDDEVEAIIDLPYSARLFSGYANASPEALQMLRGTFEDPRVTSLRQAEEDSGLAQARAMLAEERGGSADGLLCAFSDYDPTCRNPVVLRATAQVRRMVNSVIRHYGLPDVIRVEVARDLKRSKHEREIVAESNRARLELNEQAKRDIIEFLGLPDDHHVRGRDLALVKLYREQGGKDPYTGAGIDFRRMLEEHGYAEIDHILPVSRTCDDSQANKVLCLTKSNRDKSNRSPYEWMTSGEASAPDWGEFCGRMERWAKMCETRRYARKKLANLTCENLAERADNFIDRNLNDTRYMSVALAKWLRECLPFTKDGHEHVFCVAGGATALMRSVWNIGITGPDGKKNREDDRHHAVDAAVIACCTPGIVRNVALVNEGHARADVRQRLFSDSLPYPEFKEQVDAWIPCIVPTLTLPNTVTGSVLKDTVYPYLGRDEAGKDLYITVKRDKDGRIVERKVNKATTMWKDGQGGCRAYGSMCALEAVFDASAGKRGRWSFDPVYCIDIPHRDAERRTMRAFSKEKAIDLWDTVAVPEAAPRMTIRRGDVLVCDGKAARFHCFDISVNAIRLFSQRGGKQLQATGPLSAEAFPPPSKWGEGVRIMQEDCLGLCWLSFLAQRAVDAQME

[2] = system: T2, OMNI-71 (Hyphobacterium sp. 2ED5); conditions: PAM NGG; TXTL
T2 sequence: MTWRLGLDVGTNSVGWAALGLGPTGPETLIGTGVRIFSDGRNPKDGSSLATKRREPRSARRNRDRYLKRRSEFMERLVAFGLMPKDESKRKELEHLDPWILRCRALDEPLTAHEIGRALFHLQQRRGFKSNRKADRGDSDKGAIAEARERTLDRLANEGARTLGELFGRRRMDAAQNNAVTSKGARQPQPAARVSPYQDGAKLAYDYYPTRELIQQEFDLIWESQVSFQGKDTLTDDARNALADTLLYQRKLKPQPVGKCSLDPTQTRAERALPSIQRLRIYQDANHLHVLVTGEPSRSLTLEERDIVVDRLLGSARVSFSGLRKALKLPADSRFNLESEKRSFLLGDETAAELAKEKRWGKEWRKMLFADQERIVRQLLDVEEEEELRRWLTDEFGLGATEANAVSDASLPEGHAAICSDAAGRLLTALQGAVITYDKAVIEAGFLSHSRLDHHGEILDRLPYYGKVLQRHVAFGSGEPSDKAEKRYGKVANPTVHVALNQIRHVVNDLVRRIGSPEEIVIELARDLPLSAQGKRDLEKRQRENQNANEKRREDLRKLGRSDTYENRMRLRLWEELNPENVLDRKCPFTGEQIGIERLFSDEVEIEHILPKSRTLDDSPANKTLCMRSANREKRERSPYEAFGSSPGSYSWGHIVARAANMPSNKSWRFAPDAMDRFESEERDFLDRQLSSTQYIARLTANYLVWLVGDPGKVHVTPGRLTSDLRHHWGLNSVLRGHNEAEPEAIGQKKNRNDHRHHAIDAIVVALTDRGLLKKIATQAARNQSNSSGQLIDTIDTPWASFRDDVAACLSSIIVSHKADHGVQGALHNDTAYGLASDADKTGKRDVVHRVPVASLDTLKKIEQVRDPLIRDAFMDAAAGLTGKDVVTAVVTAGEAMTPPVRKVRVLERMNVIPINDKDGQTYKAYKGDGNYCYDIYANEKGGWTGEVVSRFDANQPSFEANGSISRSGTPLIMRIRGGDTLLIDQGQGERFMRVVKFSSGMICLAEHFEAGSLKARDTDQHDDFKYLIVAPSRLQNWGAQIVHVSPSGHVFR

[3] = system: T3, OMNI-56 (Chryseobacterium sp. G0240); conditions: PAM NNRNGG; TXTL
T3 sequence: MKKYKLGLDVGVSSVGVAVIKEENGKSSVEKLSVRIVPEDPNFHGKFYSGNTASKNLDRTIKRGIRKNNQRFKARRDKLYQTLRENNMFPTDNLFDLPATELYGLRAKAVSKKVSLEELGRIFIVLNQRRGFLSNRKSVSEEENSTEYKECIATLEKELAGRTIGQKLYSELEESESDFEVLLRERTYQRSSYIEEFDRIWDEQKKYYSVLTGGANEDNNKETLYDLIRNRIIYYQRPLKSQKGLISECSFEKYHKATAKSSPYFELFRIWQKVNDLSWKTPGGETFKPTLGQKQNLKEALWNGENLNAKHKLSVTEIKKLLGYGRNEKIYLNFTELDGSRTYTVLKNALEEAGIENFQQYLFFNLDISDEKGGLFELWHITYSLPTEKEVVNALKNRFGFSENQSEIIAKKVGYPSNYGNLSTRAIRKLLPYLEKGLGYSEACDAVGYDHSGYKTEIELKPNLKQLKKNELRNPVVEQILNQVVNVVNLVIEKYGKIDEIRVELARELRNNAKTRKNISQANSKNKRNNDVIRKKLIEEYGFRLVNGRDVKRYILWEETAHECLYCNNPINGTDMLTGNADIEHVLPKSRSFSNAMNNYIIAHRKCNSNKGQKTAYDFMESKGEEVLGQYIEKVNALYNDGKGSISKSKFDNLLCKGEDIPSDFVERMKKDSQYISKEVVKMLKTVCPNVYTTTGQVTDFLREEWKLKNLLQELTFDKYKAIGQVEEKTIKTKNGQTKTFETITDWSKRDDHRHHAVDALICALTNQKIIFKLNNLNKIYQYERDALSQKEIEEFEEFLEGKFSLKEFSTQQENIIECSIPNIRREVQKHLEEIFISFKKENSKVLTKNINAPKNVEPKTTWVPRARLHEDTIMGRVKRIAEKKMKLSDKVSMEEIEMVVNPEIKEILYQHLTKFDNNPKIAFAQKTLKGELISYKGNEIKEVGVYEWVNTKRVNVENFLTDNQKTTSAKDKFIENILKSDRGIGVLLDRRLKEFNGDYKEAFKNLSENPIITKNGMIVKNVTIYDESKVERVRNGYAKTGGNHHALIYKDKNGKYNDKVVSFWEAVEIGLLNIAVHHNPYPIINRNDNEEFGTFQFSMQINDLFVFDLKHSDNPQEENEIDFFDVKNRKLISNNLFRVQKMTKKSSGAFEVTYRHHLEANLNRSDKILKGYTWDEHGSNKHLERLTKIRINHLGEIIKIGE

[4] = system: T4, OMNI-65 (Faecalibacterium sp. An192); conditions: PAM NNNVTA; TXTL
T4 sequence: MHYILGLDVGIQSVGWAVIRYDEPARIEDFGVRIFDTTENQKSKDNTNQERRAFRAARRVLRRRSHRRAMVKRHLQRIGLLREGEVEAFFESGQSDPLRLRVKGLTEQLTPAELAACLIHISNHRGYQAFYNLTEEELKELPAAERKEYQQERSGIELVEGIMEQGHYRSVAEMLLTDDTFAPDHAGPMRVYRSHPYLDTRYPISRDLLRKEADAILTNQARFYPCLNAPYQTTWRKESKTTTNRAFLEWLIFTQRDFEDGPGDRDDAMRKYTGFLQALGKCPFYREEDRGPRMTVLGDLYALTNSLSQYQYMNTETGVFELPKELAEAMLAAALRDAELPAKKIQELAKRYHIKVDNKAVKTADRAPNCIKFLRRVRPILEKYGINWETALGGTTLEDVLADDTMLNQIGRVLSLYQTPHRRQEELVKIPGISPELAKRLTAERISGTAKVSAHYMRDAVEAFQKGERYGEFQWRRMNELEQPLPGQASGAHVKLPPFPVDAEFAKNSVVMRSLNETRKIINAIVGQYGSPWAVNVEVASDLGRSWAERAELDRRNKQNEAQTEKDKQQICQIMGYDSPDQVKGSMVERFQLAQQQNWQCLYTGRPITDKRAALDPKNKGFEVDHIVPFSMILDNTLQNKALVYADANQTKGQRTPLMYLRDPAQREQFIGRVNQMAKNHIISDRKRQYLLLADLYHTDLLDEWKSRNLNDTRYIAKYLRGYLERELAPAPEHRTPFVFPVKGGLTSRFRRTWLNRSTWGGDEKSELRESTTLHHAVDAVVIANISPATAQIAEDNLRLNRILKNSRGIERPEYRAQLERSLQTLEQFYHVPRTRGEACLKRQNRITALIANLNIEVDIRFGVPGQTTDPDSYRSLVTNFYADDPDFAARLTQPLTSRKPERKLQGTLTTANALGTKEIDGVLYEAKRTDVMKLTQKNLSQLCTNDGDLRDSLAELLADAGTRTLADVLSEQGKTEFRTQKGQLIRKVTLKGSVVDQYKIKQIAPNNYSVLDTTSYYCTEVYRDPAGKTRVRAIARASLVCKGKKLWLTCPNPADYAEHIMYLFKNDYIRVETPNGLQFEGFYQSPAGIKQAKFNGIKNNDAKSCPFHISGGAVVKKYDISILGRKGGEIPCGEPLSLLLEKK

Row | Sequence | activity (1-depletion score) [1] | activity (1-depletion score) [3] | activity (1-depletion score) [4] | other results
1 | GGAAGAGCAGAGCCUUGGUCUCGCCCUAGCGCGGAAAAACGUUUGGGCAAGAGGGCCCGUUAAAGACGGGUCACUCGCGGAGUAUAUCCCGCAGGGUGCUAUUCGCACUCUGCGGGUGAUCUCCUAUUCCCUCCUUUUUU / GGAAGAGCAGAGCCTTGGTCTCNNNNNNNN / NNNNNNNNGAGACCAAGGCTCTGCTCTTCC | 0.86 |  |  | 
2 | GGAAGAGCAGAGCCUUGGUCUCGCCCUAGCGCGGAAAAACGUUUGGGCAAGAGGGCCCGUUAAAGACGGGUCACUCGCGGAGUAUAUCCCGCAGGGUGCUUUUCGCACUCUGCGGGUGAUCUCCUUUUCCCUCCUUUUUU / GGAAGAGCAGAGCCTTGGTCTCNNNNNNNN / NNNNNNNNGAGACCAAGGCTCTGCTCTTCC | 0.88 |  |  | 
3 | GGAAGAGCAGAGCCUUGGUCUCGCCCUAGCGCGUUGGAAAAGUAACGUUUGGGCAAGAGGGCCCGUUAAAGACGGGUCACUCGCGGAGUAUAUCCCGCAGGGUGCUUUUCGCACUCUGCGGGUGAUCUCCUUUUCCCUCCUUUUUU / GGAAGAGCAGAGCCTTGGTCTCNNNNNNNN / NNNNNNNNGAGACCAAGGCTCTGCTCTTCC | 0.93 |  |  | 
4 | GGAAGAGCAGAGCCUUGGUCUCGUUCCGGUUGGAGAAAUCUUUCCGGUAACAAGGUUUAGACCACAAAAUGGAACGGCCUCUUCGGGGGUCGUUCUUUUUUU / GGAAGAGCAGAGCCTTGGTCTCNNNNNNNN / NNNNNNNNGAGACCAAGGCTCTGCTCTTCC |  |  |  | activity (1-depletion score) [2]: 0.96
5 | GGAAGAGCAGAGCCUUGGUCUCGUUGUGAAUUGCUUUCAAAAUUUAUUAUCUUCGAAAUUGGAUUAUAAAUUUUGAAAGCAAUUCACAAUAAGGAUUAUUCCGUUGUGAAAACAUUUAAGCCCCCUCGUCUUACCAUACGGGGGAUUUUUU / GGAAGAGCAGAGCCTTGGTCTCNNNNNNNN / NNNNNNNNGAGACCAAGGCTCTGCTCTTCC |  | 0.53 |  | 
6 | GGAAGAGCAGAGCCUUGGUCUCGUUGUGAAUUGCUUUCAUAAUUUAUUAUCUUCGAAAUUGGAUUAUAAAUUAUGAAAGCAAUUCACAAUAAGGAUUAUUCCGUUGUGAAAACAUUUAAGCCCCCUCGUCUUACCAUACGGGGGAUUUUUU / GGAAGAGCAGAGCCTTGGTCTCNNNNNNNN / NNNNNNNNGAGACCAAGGCTCTGCTCTTCC |  | 0.69 |  | 
7 | GGAAGAGCAGAGCCUUGGUCUCGUUGUGAAUUGCUUUCGAAAGAAAGCAAUUCACAAUAAGGAUUAUUCCGUUGUGAAAACAUUUAAGCCCCCUCGUCUUACCAUACGGGGGAUUUUUU / GGAAGAGCAGAGCCTTGGTCTCNNNNNNNN / NNNNNNNNGAGACCAAGGCTCTGCTCTTCC |  | 0.69 |  | 
8 | GGAAGAGCAGAGCCUUGGUCUCGUUUUGGUUCUCUGAGAAACAGAAGUUCUAAGAUAAGGCUUUACGCCGCAGGGUAUGGUGGUAUCCCAAAUAUUCCACCAUUUGAUUGUAUCUGAAAGCGUCCGGUUCGGGCGCUUUUU / GGAAGAGCAGAGCCTTGGTCTCNNNNNNNN / NNNNNNNNGAGACCAAGGCTCTGCTCTTCC |  |  | 0.94 | 
9 | GGAAGAGCAGAGCCUUGGUCUCGUUUUGGUUCUCUGAUGGGAAACAUCAGAAGUUCUAAGAUAAGGCUUUACGCCGCAGGGUAUGGUGGUAUCCCAAAUAUUCCACCAUUUGAUUGUAUCUGAAAGCGUCCGGUUCGGGCGCUUUUU / GGAAGAGCAGAGCCTTGGTCTCNNNNNNNN / NNNNNNNNGAGACCAAGGCTCTGCTCTTCC |  |  | 0.94 | 
10 | GGAAGAGCAGAGCCUUGGUCUCGUUUUGGUUCUUCUGGAAACAGAAGUUCUAAGAUAAGGCUUUACGCCGCAGGGUAUGGUGGUAUCCCAAAUAUUCCACCAUUUGAUUGUAUCUGAAAGCGUCCGGUUCGGGCGCUUUUU / GGAAGAGCAGAGCCTTGGTCTCNNNNNNNN / NNNNNNNNGAGACCAAGGCTCTGCTCTTCC |  |  | 0.93 | 

— patent US20230383273
